Paper PMC7515738, “Identification and characterization of hippuristanol-resistant mutants reveals eIF4A1 dependencies within mRNA 5′ leader regions”

What was measured:
Settings in all cases: tags: His6, single strand
[1] = biological target: eIF4A1 wt (UniProt P60842 1-406); test: fluorescence polarization; no Hipp; FP: 1 uM recombinant protein, FAM-poly r(AG)8, vehicle (0.1% DMSO) or Hipp, 30 min; buffer, salt, pH and temperature not given in the material
[2] = biological target: eIF4A1 G361C (UniProt P60842 1-406, G361C); test: fluorescence polarization; no Hipp; similar to wt; FP: 1 uM recombinant protein, FAM-poly r(AG)8, vehicle (0.1% DMSO) or Hipp, 30 min; buffer, salt, pH and temperature not given in the material
Chain of eIF4A1 G361C (P60842 whole entry G361C): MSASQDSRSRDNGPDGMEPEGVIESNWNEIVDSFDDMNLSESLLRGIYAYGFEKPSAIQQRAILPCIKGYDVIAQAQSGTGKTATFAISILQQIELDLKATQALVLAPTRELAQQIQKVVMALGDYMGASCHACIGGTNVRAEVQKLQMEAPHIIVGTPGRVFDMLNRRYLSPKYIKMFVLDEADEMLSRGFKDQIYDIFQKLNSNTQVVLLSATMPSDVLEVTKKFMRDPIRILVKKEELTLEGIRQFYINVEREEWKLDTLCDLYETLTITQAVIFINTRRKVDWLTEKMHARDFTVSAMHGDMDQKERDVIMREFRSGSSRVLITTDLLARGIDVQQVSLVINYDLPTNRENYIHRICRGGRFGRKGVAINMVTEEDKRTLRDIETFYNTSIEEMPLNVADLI

[3] = biological target: eIF4A1 G370S (UniProt P60842 1-406, G370S); test: as above
Chain of eIF4A1 G370S (P60842 whole entry G370S): as the sequence (P60842 whole entry G361C) above, with C361G, G370S counted along it

Measured: binding result

Chain of eIF4A1 wt (P60842 whole entry): as the sequence (P60842 whole entry G361C) above, with C361G counted along it

AGAGAGAGAGAGAGAG (ssRNA) [poly r(AG)8]
binds: all assays above
